Where a chain is given by its changes, count along the chain named. One block for each molecule: values may come before it.
Columns and labels:
[1] = molecular target: human TNFR1, soluble recombinant protein (human) (UniProt P19438); experiment: phage ELISA on 1 nM TNFR1 coat, anti-M13-HRP; phage after 100 ug/ml trypsin 1 h RT; phage input 2.26E+10
TNFR1-FC fusion [2] = molecular target: T1, TNFR1-FC fusion (human, UniProt P19438 30-211, limits assumed); experiment: RBA assay (column 'Activity (nM)'); taken to be of the Fc fusion; competition with TNF-alpha
T1 construct: not shown: Fc part, not described further
T1 sequence (looked up): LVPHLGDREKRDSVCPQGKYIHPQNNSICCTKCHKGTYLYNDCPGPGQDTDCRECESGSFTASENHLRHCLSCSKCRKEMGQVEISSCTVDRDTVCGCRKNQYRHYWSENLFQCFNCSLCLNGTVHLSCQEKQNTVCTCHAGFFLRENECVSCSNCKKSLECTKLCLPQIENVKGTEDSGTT

TNFR1-FC fusion [3] = molecular target: T1, TNFR1-FC fusion; experiment: TNFR-1 receptor binding assay: inhibition of TNF-alpha binding to TNFR1; after 7 days at 50 °C, concentration assumed from 1 mg/ml
TNFR1-FC fusion [4] = molecular target: T1, TNFR1-FC fusion; experiment: TNFR-1 receptor binding assay: inhibition of TNF-alpha binding to TNFR1; after 14 days at 50 °C, concentration assumed from 1 mg/ml
TNFR1-FC fusion [5] = molecular target: T1, TNFR1-FC fusion; experiment: TNFR-1 receptor binding assay: inhibition of TNF-alpha binding to TNFR1; unstressed sample (T0)
recombinant human VEGF = molecular target: T2, recombinant human VEGF (human, UniProt P15692-4 27-191, biotinylated where used on streptavidin or neutravidin surfaces); experiment: RBA assay (column 'Activity (nM)'); taken to be of the Fc fusion; competitor VEGFR2-Fc
T2 construct: also called hVEGF; VEGFA
T2 sequence (P15692 other isoform, or with tags, fused parts or gaps limits assumed): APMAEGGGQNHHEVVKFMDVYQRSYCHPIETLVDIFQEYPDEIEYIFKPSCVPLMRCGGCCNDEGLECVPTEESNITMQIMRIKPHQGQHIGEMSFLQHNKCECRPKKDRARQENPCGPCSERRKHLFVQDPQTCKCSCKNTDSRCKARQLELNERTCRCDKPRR

Molecule: DOM1h-131
phage ELISA signal [1]: 0.337

B1: DMS1544 (DOM1h-131-206 Fc fusion) (Fc fusion)
chain: EVQLLESGGGLVQPGGSLRLSCAASGFTFAHETMVWVRQAPGKGLEWVSHIPPDGQDPFYADSVKGRFTISRDNSKNTLYLQMNSLRAEDTAVYHCALLPKRGPWFDYWGQGTLVTVSS
notes: dAb fused to human IgG1 Fc; dimeric Fc fusion format; not shown: short linker and human IgG1 Fc
EC50 (TNFR1-FC fusion [2]): 0.047 nM

B4: DMS1546 (DOM15-10 Fc fusion) (Fc fusion)
chain: DIQMTQSPSSLSASVGDRVTITCRASQWIGPELSWYQQKPGKAPKLLIYHTSILQSGVPSRFSGSGSGTDFTLTISSLQPEDFATYYCQQYMFQPRTFGQGTKVEIRR
notes: VK dAb fused to human IgG1 Fc; dimeric Fc fusion format; not shown: short linker and human IgG1 Fc
EC50 (recombinant human VEGF): 0.913 nM

Further lines, results first:

IC50 (read off the curve) (TNFR1-FC fusion [3]): ~0.1 nM
IC50 (read off the curve) (TNFR1-FC fusion [4]): ~0.1 nM
B2: DOM1h-131-206 (other)
VH: B1 chain
notes: also called GSK1995057A

IC50 (read off the curve) (TNFR1-FC fusion [5]): ~0.1 nM
B3: DOM1h-131-511 (other)
VH: B1 chain with D54V, H95Y
notes: Anti-TNFR1 domain antibody (dAb, immunoglobulin single variable domain, VH), tested as soluble monomer; also called GSK1995056A

From patent publication US20120134982A1 (published 2012)
